Consider four proteins from patent US20090269779.

Series [1] deals with human wild type galectin-3, P17931.
The target in series [2] is galectin-3 A33G mutant, P17931.
For series [3], the target named is galectin-3 A33G and H64P double mutant, P17931.
Series [4] has as its target galectin-3 H64P mutant, P17931.

Sequence of human wild type galectin-3, P17931 (P17931 whole entry): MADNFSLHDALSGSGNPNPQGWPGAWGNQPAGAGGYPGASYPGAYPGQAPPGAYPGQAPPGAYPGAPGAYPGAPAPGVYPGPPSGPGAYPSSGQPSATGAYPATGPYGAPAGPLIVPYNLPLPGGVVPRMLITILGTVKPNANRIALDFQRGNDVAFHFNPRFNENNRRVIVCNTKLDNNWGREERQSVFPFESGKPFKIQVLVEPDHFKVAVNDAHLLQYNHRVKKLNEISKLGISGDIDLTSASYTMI
Sequence of galectin-3 A33G mutant, P17931 (P17931 whole entry A33G): as the sequence (P17931 whole entry) above, with A33G counted along it
Sequence of galectin-3 H64P mutant, P17931 (P17931 whole entry, looked up, stated change not applied): as the sequence (P17931 whole entry) above
Sequence of galectin-3 A33G and H64P double mutant, P17931 (P17931 whole entry, looked up, stated change not applied): as the sequence (P17931 whole entry) above

B1: human recombinant pro-MMP-9 (protein)
chain: APRQRQSTLVLFPGDLRTNLTDRQLAEEYLYRYGYTRVAEMRGESKSLGPALLLLQKQLSLPETGELDSATLKAMRTPRCGVPDLGRFQTFEGDLKWHHHNITYWIQNYSEDLPRAVIDDAFARAFALWSAVTPLTFTRVYSRDADIVIQFGVAEHGDGYPFDGKDGLLAHAFPPGPGIQGDAHFDDDELWSLGKGVVVPTRFGNADGAACHFPFIFEGRSYSACTTDGRSDGLPWCSTTANYDTDDRFGFCPSERLYTQDGNADGKPCQFPFIFQGQSYSACTTDGRSDGYRWCATTANYDRDKLFGFCPTRADSTVMGGNSAGELCVFPFTFLGKEYSTCTSEGRGDGRLWCATTSNFDSDKKWGFCPDQGYSLFLVAAHEFGHALGLDHSSVPEALMYPMYRFTEGPPLHKDDVNGIRHLYGPRPEPEPRPPTTTTPQPTAPPTVCPTGPPTVHPSERPTAGPTGPPSAGPTGPPTAGPSTATTVPLSPVDDACNVNIFDAIAEIGNQLYLFKDGKYWRFSEGRGSRPQGPFLIADKWPALPRKLDSVFEERLSKKLFFFSGRQVWVYTGASVLGPRRLDKLGLGADVAQVTGALRSGRGKMLLFSGRRLWRFDVKAQMVDPRSASEVDRMFPGVPLDTHDVFQYREKAYFCQDRFYWRVSSRSELNQVDQVGYVTYDILQCPED
With B1, the “cleavage of recombinant galectin-3 (Western blot)” value (“cleavage” for short) in series [1] is given as “The cleavage products were not seen when galectin-3 was incubated alone or with pro-MMPs”.

B2: activated human recombinant MMP-9 (protein)
chain: MRTPRCGVPDLGRFQTFEGDLKWHHHNITYWIQNYSEDLPRAVIDDAFARAFALWSAVTPLTFTRVYSRDADIVIQFGVAEHGDGYPFDGKDGLLAHAFPPGPGIQGDAHFDDDELWSLGKGVVVPTRFGNADGAACHFPFIFEGRSYSACTTDGRSDGLPWCSTTANYDTDDRFGFCPSERLYTQDGNADGKPCQFPFIFQGQSYSACTTDGRSDGYRWCATTANYDRDKLFGFCPTRADSTVMGGNSAGELCVFPFTFLGKEYSTCTSEGRGDGRLWCATTSNFDSDKKWGFCPDQGYSLFLVAAHEFGHALGLDHSSVPEALMYPMYRFTEGPPLHKDDVNGIRHLYGPRPEPEPRPPTTTTPQPTAPPTVCPTGPPTVHPSERPTAGPTGPPSAGPTGPPTAGPSTATTVPLSPVDDACNVNIFDAIAEIGNQLYLFKDGKYWRFSEGRGSRPQGPFLIADKWPALPRKLDSVFEERLSKKLFFFSGRQVWVYTGASVLGPRRLDKLGLGADVAQVTGALRSGRGKMLLFSGRRLWRFDVKAQMVDPRSASEVDRMFPGVPLDTHDVFQYREKAYFCQDRFYWRVSSRSELNQVDQVGYVTYDILQCPED
In the case of B2, the “cleavage” value is “Wild type and A33G galectin-3 produced a polypeptide of ~22 kDa consistent with cleavage at Ala62-Tyr63” in series [1]; “Wild type and A33G galectin-3 produced a polypeptide of ~22 kDa consistent with cleavage at Ala62-Tyr63” in series [2]; “Double mutation at A33G and H64P showed complete resistance to cleavage by both MMP-2 and MMP-9” in series [3]; “MMP-9 did not cleave the H64P mutant” in series [4].

B3: human recombinant pro-MMP-2 (protein)
chain: APSPIIKFPGDVAPKTDKELAVQYLNTFYGCPKESCNLFVLKDTLKKMQKFFGLPQTGDLDQNTIETMRKPRCGNPDVANYNFFPRKPKWDKNQITYRIIGYTPDLDPETVDDAFARAFQVWSDVTPLRFSRIHDGEADIMINFGRWEHGDGYPFDGKDGLLAHAFAPGTGVGGDSHFDDDELWTLGEGQVVRVKYGNADGEYCKFPFLFNGKEYNSCTDTGRSDGFLWCSTTYNFEKDGKYGFCPHEALFTMGGNAEGQPCKFPFRFQGTSYDSCTTEGRTDGYRWCGTTEDYDRDKKYGFCPETAMSTVGGNSEGAPCVFPFTFLGNKYESCTSAGRSDGKMWCATTANYDDDRKWGFCPDQGYSLFLVAAHEFGHAMGLEHSQDPGALMAPIYTYTKNFRLSQDDIKGIQELYGASPDIDLGTGPTPTLGPVTPEICKQDIVFDGIAQIRGEIFFFKDRFIWRTVTPRDKPMGPLLVATFWPELPEKIDAVYEAPQEEKAVFFAGNEYWIYSASTLERGYPKPLTSLGLPPDVQRVDAAFNWSKNKKTYIFAGDKFWRYNEVKKKMDPGFPKLIADAWNAIPDNLDAVVDLQGGGHSYFFKGAYYLKLENQSLKSVKFGSIKSDWLGC
For the protein B3, in series [1], the “cleavage” value is reported as “The cleavage products were not seen when galectin-3 was incubated alone or with pro-MMPs”.

B4: activated human recombinant MMP-2 (protein)
chain: YNFFPRKPKWDKNQITYRIIGYTPDLDPETVDDAFARAFQVWSDVTPLRFSRIHDGEADIMINFGRWEHGDGYPFDGKDGLLAHAFAPGTGVGGDSHFDDDELWTLGEGQVVRVKYGNADGEYCKFPFLFNGKEYNSCTDTGRSDGFLWCSTTYNFEKDGKYGFCPHEALFTMGGNAEGQPCKFPFRFQGTSYDSCTTEGRTDGYRWCGTTEDYDRDKKYGFCPETAMSTVGGNSEGAPCVFPFTFLGNKYESCTSAGRSDGKMWCATTANYDDDRKWGFCPDQGYSLFLVAAHEFGHAMGLEHSQDPGALMAPIYTYTKNFRLSQDDIKGIQELYGASPDIDLGTGPTPTLGPVTPEICKQDIVFDGIAQIRGEIFFFKDRFIWRTVTPRDKPMGPLLVATFWPELPEKIDAVYEAPQEEKAVFFAGNEYWIYSASTLERGYPKPLTSLGLPPDVQRVDAAFNWSKNKKTYIFAGDKFWRYNEVKKKMDPGFPKLIADAWNAIPDNLDAVVDLQGGGHSYFFKGAYYLKLENQSLKSVKFGSIKSDWLGC
In the case of B4, the “cleavage” value in series [1] was “Wild type and A33G galectin-3 produced a polypeptide of ~22 kDa consistent with cleavage at Ala62-Tyr63”; in series [2], “Wild type and A33G galectin-3 produced a polypeptide of ~22 kDa consistent with cleavage at Ala62-Tyr63”; in series [3], “Double mutation at A33G and H64P showed complete resistance to cleavage by both MMP-2 and MMP-9”; in series [4] it was “The H64P mutant produced a ~27-kDa polypeptide upon incubation with MMP-2 indicating that it is cleaved at Gly32-Ala33”.
